Earlier results as cited in PMC12115143.

Legend:
[1] = molecular target: AHP1 (Arabidopsis thaliana) (UniProt Q9ZNV9)
[2] = molecular target: AHP2 (Arabidopsis thaliana) (UniProt Q9ZNV8)
Sequence of UniProt Q9ZNV8 (Q9ZNV8 whole entry): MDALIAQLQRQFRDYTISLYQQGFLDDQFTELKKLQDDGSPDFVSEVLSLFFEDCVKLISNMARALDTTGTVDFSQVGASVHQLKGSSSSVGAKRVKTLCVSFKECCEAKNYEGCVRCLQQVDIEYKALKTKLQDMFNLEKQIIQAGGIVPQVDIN

Sequence of UniProt Q9ZNV9 (Q9ZNV9 whole entry): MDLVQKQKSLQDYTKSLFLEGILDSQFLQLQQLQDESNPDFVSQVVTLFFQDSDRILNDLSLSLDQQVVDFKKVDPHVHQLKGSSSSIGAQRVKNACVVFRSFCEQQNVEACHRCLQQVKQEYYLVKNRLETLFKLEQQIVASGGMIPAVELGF

Kd [1]	Kd [2]	Substance
1500 nM	–	ETR1 (from UniProt P49333)
–	300 nM	AHK1 (from UniProt Q9SXL4)
